According to EP1165135B1 (City of Hope, dated 2004):
Residue numbers refer to the chain shown, from its start.

Legend:
[1] = target: T1, rat FXR (farnesoid X-activated receptor), full-length (rat, UniProt Q62735 1-469); assay: electrophoretic mobility shift, in vitro translated FXR + RXR on EcRE probe
T1 construct: mature; Full-length protein cloned into pCMX and translated in vitro for the mobility shift assays; also called bile acid nuclear receptor
T1 sequence (looked up): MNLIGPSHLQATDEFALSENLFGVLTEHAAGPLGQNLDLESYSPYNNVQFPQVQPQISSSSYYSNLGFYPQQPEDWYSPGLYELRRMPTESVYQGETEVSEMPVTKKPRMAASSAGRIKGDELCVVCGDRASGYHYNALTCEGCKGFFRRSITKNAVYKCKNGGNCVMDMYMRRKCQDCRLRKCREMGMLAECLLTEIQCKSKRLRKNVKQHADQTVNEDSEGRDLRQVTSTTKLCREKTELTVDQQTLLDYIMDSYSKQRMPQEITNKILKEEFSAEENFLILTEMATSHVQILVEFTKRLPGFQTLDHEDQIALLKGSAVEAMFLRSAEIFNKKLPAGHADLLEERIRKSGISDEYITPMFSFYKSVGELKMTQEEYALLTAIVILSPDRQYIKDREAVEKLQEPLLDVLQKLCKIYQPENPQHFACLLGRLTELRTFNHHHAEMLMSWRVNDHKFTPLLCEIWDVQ

[2] = target: T1, rat FXR (farnesoid X-activated …); assay: DNA binding as a heterodimer (Figure 5 and data not shown)
[3] = target: T2, GST-GRIP1, the three receptor interaction domains of mouse GRIP1 (Arg 625 - Lys 765) fused to … (mouse, UniProt Q61026 625-765); assay: phosphorimager quantitation of the mobility shift autoradiogram against LG268 concentration (Figure 4)
T2 construct: Expressed in E. coli and purified on glutathione-sepharose; also called CoA; not shown: glutathione-S-transferase (GST)
T2 sequence (looked up): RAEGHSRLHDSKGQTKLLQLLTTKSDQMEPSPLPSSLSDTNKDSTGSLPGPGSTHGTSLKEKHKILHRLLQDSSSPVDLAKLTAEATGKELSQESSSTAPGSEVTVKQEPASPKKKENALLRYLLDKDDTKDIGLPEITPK

[4] = target: T2, GST-GRIP1, the three receptor …; assay: electrophoretic mobility shift, DR1 probe, LG268 0-1000 nM

B1: human RXRα (9-cis retinoic acid receptor), full-length, wild type (receptor, UniProt P19793 1-462, looked up)
chain: MDTKHFLPLDFSTQVNSSLTSPTGRGSMAAPSLHPSLGPGIGSPGQLHSPISTLSSPINGMGPPFSVISSPMGPHSMSVPTTPTLGFSTGSPQLSSPMNPVSSSEDIKPPLGLNGVLKVPAHPSGNMASFTKHICAICGDRSSGKHYGVYSCEGCKGFFKRTVRKDLTYTCRDNKDCLIDKRQRNRCQYCRYQKCLAMGMKREAVQEERQRGKDRNENEVESTSSANEDMPVERILEAELAVEPKTETYVEANMGLNPSSPNDPVTNICQAADKQLFTLVEWAKRIPHFSELPLDDQVILLRAGWNELLIASFSHRSIAVKDGILLATGLHVHRNSAHSAGVGAIFDRVLTELVSKMRDMQMDKTELGCLRAIVLFNPDSKGLSNPAEVEALREKVYASLEAYCKHKYPEQPGRFAKLLLRLPALRSIGLKCLEHLFFFKLIGDTPIDTFLMEMLEAPHQMT
notes: mature; also called wild-type RXR
B1: binds [1].

B2: RXRm, human RXRα with the point mutation Asp 322→Pro in the ligand binding domain (receptor, UniProt P19793 1-462, looked up)
chain: B1 chain with D322P
notes: mature; Claim 9 prints Asp332→Pro; also called mutant RXR; RXR mutant
In the case of B2, the binding result [2] is reported as “binds”, the “fold higher ligand concentration required for recruitment of coactivator (against wild-type RXR)” value [3] is reported as about 100 fold and the “fold decrease in potency of coactivator recruitment compared to wild type RXR” value [4] is reported as 100 fold.
